{"source": "paper PMC6821831", "about": "“Colorimetric Assay Reports on Acyl Carrier Protein Interactions” (Scientific Reports, 2019)", "binders": {"B1": {"name": "FabF (E. coli ketoacyl synthase) (enzyme, UniProt P0AAI5 1-413, looked up)", "chain": "MSKRRVVVTGLGMLSPVGNTVESTWKALLAGQSGISLIDHFDTSAYATKFAGLVKDFNCEDIISRKEQRKMDAFIQYGIVAGVQAMQDSGLEITEENATRIGAAIGSGIGGLGLIEENHTSLMNGGPRKISPFFVPSTIVNMVAGHLTIMYGLRGPSISIATACTSGVHNIGHAARIIAYGDADVMVAGGAEKASTPLGVGGFGAARALSTRNDNPQAASRPWDKERDGFVLGDGAGMLVLEEYEHAKKRGAKIYAELVGFGMSSDAYHMTSPPENGAGAALAMANALRDAGIEASQIGYVNAHGTSTPAGDKAEAQAVKTIFGEAASRVLVSSTKSMTGHLLGAAGAVESIYSILALRDQAVPPTINLDNPDEGCDLDFVPHEARQVSGMEYTLCNSFGFGGTNGSLIFKKI", "notes": "E. coli ketoacyl synthase FabF; Sediments mostly as a dimer in SV-AUC; also called KS; E. coli KS FabF; source: E. coli BL21, purified (Ni-NTA)"}}, "key": {"[1]": {"target": "T1, holo-AcpP (E. coli FAS acyl carrier protein, 4'-phosphopantetheine arm installed) (E. coli), P0A6A8", "T1 chain": "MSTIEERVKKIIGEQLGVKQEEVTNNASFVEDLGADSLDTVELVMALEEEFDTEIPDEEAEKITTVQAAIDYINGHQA", "experiment": "AUC; sedimentation velocity of each protein alone; FabF 10-36 uM, holo-AcpP 345-488 uM, holo-ACT ACP (wild type) 98-196 uM; 20 mM Tris-HCl pH 8.0, 150 mM NaCl, 1 mM DTT, 20 C", "settings": "remark: other sources report otherwise"}, "[2]": {"target": "B1", "experiment": "AUC; sedimentation velocity titration; FabF constant at 16 uM, AcpP 0-230 uM or ACT ACP 0-250 uM; 20 mM Tris-HCl pH 8.0, 150 mM NaCl, 1 mM DTT, 20 C; s(w) and EPT s(w) fast isotherms fitted globally to A + B <-> AB", "settings": "both partners purified"}, "[3]": {"target": "the molecule itself", "experiment": "AUC; sedimentation velocity of each protein alone; FabF 10-36 uM, holo-AcpP 345-488 uM, holo-ACT ACP (wild type) 98-196 uM; 20 mM Tris-HCl pH 8.0, 150 mM NaCl, 1 mM DTT, 20 C"}, "[4]": {"target": "B1", "experiment": "colorimetric read-out of the cross-linking (TNB2− release, A412); ACP-TNB− mixed with FabF at ACP-TNB:FabF molar ratios 0.2:1 to 3:1; 50 mM sodium phosphate pH 7.6, 20 min, room temperature; A412 of the reaction mixture", "settings": "both partners purified"}}}
{"binder": "holo-AcpP (E. coli FAS acyl carrier protein, 4'-phosphopantetheine arm installed), P0A6A8 1-78 (natural protein, here or on the partner: 4'-phosphopantetheine (Ppant) arm on the conserved serine at the N-terminus of helix II (holo form); 4'-phosphopantetheine (Ppant) arm on the conserved serine at the N-terminus of helix II (holo form)) MSTIEERVKKIIGEQLGVKQEEVTNNASFVEDLGADSLDTVELVMALEEEFDTEIPDEEAEKITTVQAAIDYINGHQA", "values": [{"measurement": "stoichiometry N", "setting": "[1]", "result": 4}]}
{"binder": "holo-AcpP (E. coli FAS acyl carrier protein, 4'-phosphopantetheine arm installed) (natural protein, UniProt P0A6A8 1-78, looked up, 4'-phosphopantetheine (Ppant) arm on the conserved serine at the N-terminus of helix II (holo form), E. coli fatty acid synthase acyl carrier protein AcpP, UniProt P0A6A8; N- and C-terminal His6, from pKJ5535 or pTL14; AUC section gives 12.3 kDa for AcpP; also called E. coli ACP; source: E. coli BAP1, purified (Ni-NTA); converted to holo form on resin with Sfp R4-4 and coenzyme A) MSTIEERVKKIIGEQLGVKQEEVTNNASFVEDLGADSLDTVELVMALEEEFDTEIPDEEAEKITTVQAAIDYINGHQA", "values": [{"measurement": "Kd", "setting": "[2]", "result": "6.4 ± 2", "unit": "µM"}]}
{"binder": "B1", "values": [{"measurement": "stoichiometry N", "setting": "[3]", "result": 2}]}
{"binder": "AcpP-TNB− (E. coli AcpP with the Ppant thiol as mixed disulfide with 2-nitro-5-thiobenzoate) (natural protein, UniProt P0A6A8 1-78, looked up, 4'-phosphopantetheine arm on the conserved serine; its terminal thiol is a mixed disulfide with 2-nitro-5-thiobenzoate (TNB−), E. coli fatty acid synthase acyl carrier protein AcpP, UniProt P0A6A8; also called ACP-TNB−; AcpP-TNB− adduct; source: E. coli BAP1, purified (Ni-NTA), converted to holo form with Sfp R4-4, treated with DTNB, desalted (PD-10)) MSTIEERVKKIIGEQLGVKQEEVTNNASFVEDLGADSLDTVELVMALEEEFDTEIPDEEAEKITTVQAAIDYINGHQA", "values": [{"measurement": "stoichiometry N", "setting": "[4]", "result": 1}]}
